Laboratory results reported in US20090285799A1.

Experiments:
[1] = biological target: T1, hIL-13Rα1.ECR (N-terminal FLAG-tagged fusion protein of the extracellular region of human IL-13Rα1) (human) (UniProt P78552); assay: BIACORE SPR, hIL-13Rα1.ECR immobilized on CM5 chip, antibody as analyte, bivalent model
T1 sequence: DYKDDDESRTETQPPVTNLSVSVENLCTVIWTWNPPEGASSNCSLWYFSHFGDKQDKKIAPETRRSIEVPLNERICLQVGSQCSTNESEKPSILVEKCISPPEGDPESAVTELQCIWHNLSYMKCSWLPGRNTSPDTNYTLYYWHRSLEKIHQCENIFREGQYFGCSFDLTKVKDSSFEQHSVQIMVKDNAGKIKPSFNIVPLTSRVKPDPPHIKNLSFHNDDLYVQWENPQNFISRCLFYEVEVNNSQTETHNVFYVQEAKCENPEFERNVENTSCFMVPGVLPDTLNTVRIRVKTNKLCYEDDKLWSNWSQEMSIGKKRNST

[2] = biological target: T1, hIL-13Rα1.ECR (N-terminal FLAG-tagged fusion protein of the extracellular region of human IL-13Rα1) (human); assay: ELISA on plate-bound hIL-13Rα1.ECR
[3] = biological target: T2, human IL-13Rα1 on normal human dermal fibroblast (NHDF) cells (human) (UniProt P78552); assay: cell-based or functional assay
T2 sequence: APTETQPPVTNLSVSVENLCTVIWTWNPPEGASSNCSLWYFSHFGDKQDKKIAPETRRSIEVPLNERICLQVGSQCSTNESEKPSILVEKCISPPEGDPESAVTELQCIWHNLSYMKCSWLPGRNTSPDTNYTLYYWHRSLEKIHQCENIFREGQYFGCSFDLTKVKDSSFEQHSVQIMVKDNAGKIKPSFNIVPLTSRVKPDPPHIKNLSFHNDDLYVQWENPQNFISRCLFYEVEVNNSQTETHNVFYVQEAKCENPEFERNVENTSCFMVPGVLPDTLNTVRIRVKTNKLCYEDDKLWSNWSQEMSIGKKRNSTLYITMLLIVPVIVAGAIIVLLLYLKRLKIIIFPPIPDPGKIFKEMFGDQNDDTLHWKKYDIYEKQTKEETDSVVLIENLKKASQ

B1: 4A10 (antibody, part only; not given: light chain, V domains shown, part only)
VH: QVQLVESGGGVVQPGRSLRLSCAASGFTFSNYGMHWVRQAPGKGLEWVAAIWYDGSDKNYADSVKGRVTISRDTSKKTLYLQMNSLRAEDTAIYYCAREITIMRGLIKNYYYYGMDVWGQGTTVTVSS
- Kd [1]: 5.8 nM
- Kd [2]: 1.2 nM
- NHDF cells IL-13 Eotaxin release (IC50) [on average] [3]: 0.35 µg/mL
